According to patent EP4778940A1 (Artivila (ShenZhen) Innovation Center, Ltd., dated 2026):
Numbering of substitutions follows the chain as printed.

T1: human HHLA2 on cells (K562-hHHLA2; HCC827) (human, UniProt Q9UM44 23-414)
T1 construct: whole, on cells; also called K562 cells overexpressing human HHLA2; HCC827 cell line highly expressing human HHLA2
T1 sequence (looked up): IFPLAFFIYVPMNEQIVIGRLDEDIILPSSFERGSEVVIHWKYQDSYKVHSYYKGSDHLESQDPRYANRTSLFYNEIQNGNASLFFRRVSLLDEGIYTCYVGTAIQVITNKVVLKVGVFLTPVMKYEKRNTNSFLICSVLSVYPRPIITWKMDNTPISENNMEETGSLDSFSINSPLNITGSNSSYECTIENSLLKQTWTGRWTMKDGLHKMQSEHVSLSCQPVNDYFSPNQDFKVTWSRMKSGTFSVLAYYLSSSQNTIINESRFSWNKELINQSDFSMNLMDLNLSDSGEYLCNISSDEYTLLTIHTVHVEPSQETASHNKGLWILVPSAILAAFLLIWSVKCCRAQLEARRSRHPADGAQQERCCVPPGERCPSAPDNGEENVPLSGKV

T2: human HHLA2 proteins (Acro Biosystems, B77-H52H5) (human, UniProt Q9UM44 23-344)
T2 construct: Bought recombinant protein coated on the ELISA plate; also called B7-H7; B7y
T2 sequence (looked up): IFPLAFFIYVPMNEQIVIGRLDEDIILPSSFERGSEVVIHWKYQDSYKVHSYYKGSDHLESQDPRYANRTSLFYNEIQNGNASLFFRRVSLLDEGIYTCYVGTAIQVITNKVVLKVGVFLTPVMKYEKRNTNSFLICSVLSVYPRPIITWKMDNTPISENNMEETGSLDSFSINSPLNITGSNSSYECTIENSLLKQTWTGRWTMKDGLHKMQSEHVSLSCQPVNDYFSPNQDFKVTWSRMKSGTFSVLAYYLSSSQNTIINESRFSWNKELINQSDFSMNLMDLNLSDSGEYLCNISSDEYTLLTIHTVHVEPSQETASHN

B1: positive control antibody 2C4 (antibody, V domains shown)
VH: EVHLQQSGPELEKPGVSVKISCKASGFSFTDYNMNWVKQSSGKSLEWIGNIDPYYGRINYNQKFKGKATLSVDKSSSTAYMHLKSLTSEDSAVYYCATGAYTSGYSWFAYWGQGTLVTVSS
VL: ENVLTQSPGIMAASLGEKVTMTCSASSSVSSSYLHWYQQRSGASPKPLIHRTSNLASGVPARFSGSGSGTSYSLTISSVEAEDDATYYCQQWSGYPFTFGSGTKLEIK
notes: also called positive control 2C4; positive antibody
B2: Ab01-63M2 (antibody, V domains shown)
VH: DVQLQESGGGLVQPGGSLRLSCAASGFTLDYYVIGWFRQAPGKEREGVSCISSSDGSTYSADSVKGRFTISRDNAENTVYLQMNSLKPEDTAVYYCAARRSPGIEGWCALPFFFGSWGQGTQVTVSS
notes: also called candidate parental antibody Ab01-63M2
B3: Ab01-84M2 (antibody, V domains shown)
VH: DVQLQESGGGLVQAGGSLRLSCAASGFPFDDYSIGWFRQAPGKAREGISCISSTHGTTYYTDSVKDRFTITRDNAKNTVYLQMNNLKPEDAAVYYCAAGLDGLACHRRDSGSRYRTQLYDYWGQGTQVTVSS
B4: Ab01-110M1 (antibody, V domains shown)
VH: DVQLQESGGGLVQTGGSLRLSCAAPGFTLDDYAIGWFRQAPGKERERISCITSSTNRTYYANSVKGRFTISRDSAKNTVYLQMNSLKPEDTAVYYCAAEPILCVLWSAGGAMDYWGKGTQVTVSS
B5: Ab01-122M1 (antibody, V domains shown)
VH: DVQLQESGGGLVQPGGSLKLSCTASRRIFTFTAAGWYRQAPGQQREFVAVIANGGHTNYADSVKGRFTISRDNAKNTVYLQMNSLKPEDTAVYYCNTPPAFGSWGPGTQVTVSS
B6: Ab01-126M1 (antibody, V domains shown)
VH: B5 VH with K19R, R26T, T32S, Q43K, A52T, N53G, N76D
B7: Ab01-7M2 (antibody, V domains shown)
VH: DVQLQESGGGLVQPGGSLRLSCAASGFTFSSTPMYWYRQAPGKERDFVAIMAPGGYEDIADSVRGRFSISRDNGNNTMYLQMNSLKPEDTALYYCRALNSWGQGTQVTVSS
B8: Ab01-63Ghm25 (antibody, V domains shown)
VH: B2 VH with D1E, Q5L, D55T, N74T, A75S, E76K, K87R, P88A, Q122L
notes: Humanized or engineered mutant of Ab01-63G4; also called mutant Ab01-63Ghm25
B9: Ab01-63Ghm28 (antibody, V domains shown)
VH: B2 VH with D1E, Q5L, D55T, N74T, A75S, E76K, K87R, P88A, F112E, Q122L
notes: Humanized or engineered mutant of Ab01-63G4; also called mutant Ab01-63Ghm28
B10: Ab01-63Ghm26 (antibody, V domains shown)
VH: B2 VH with D1E, Q5L, D55T, D62Q, N74T, A75S, E76K, K87R, P88A, Q122L
notes: Humanized or engineered mutant of Ab01-63G4; also called mutant Ab01-63Ghm26
B11: Ab01-91M2 (antibody, V domains shown)
VH: DVQLQESGGGLVQPGGSLRLSCAASGFTFSNYLMGWYRQAPGKERELVAAINSAGYSTVYAESVKGRFTTSRDNAKSMVYLQMNSLKAEDTAVYYCNARYDRWHDYWGQGTQVTVSS
B12: Ab01-121M1 (antibody, V domains shown)
VH: DVQLQESGGGLVQPGGSLRLSCAASGSRFSFNVMGWHRQAPGKQRELVALISSGGTANYADSVKGRFTISRDNAGNTMYLQMNTLKPEDTAVYYCTATTPVGQYWGQGTQVTVSS

Target: T1, human HHLA2 on cells (K562-hHHLA2; …)
Experiment: flow cytometry on HCC827 tumor cells highly expressing human HHLA2

Row | EC50 [nM] | Binder
1 | 0.281 | B1
2 | 0.043 | B2

Target: T2, human HHLA2 proteins (Acro Biosystems, …)
Experiment: ELISA, human HHLA2 protein coated

Row | binding result | Binder
3 | binds | B3
4 | binds | B4
5 | binds | B5
6 | binds | B6
7 | binds | B7
8 | binds | B8
9 | binds | B9
10 | binds | B10
11 | binds | B11
12 | binds | B12

Target: T1, human HHLA2 on cells (K562-hHHLA2; …)
Experiment: flow cytometry on K562-hHHLA2 cells

Row | binding result | Binder
13 | binds | B3
14 | binds | B4
15 | binds | B5
16 | binds | B6
17 | binds | B7
18 | binds | B11
19 | binds | B12

Target: T1, human HHLA2 on cells (K562-hHHLA2; …)
Experiment: cell-based or functional assay

Row | Binder | EC50 (nM), promoting the killing effects of NK92MI on target cells (K562 overexpressing human HHLA2) [nM]
20 | B1 | 0.192
21 | B2 | 0.125
